Results reported in patent US20130195884A1, “NOVEL MODULATORS OF TRAIL SIGNALLING” (Deutsches Krebsforschungszentrum, priority 2009, published 2013).

What was measured:
[1] = cited from earlier work
[2] = test system: low-grade Non-Hodgkin Lymphoma (NHL); conditions: combination with rituximab, phase Ib, cited from earlier work
[3] = test system: freshly isolated human hepatocytes; conditions: cited from earlier work
HeLa cells = assay: Titration of TRAIL-induced apoptosis, cell viability by ATP quantification (CellTiterGlo); type: cell-based, human
Experimental: FIG. 2: Titration curve for TRAIL-induced apoptosis. HeLa cells were stimulated with 0.001 to 1000 ng/ml TRAIL, followed by analysis of cell viability by the quantification of ATP (CelliterGlo® assay).
FIG. 5. TRAIL-induced cell death in HeLa cells can be rescued by siRNAs. (A) TRAIL induces apoptosis in HeLa cells. Membrane blebbing was observed after 1-2 hours and a complete loss of viable cells was detected after 24 hours. (B) The killing activity of TRAIL in HeLa cells is concentration dependent. (C) Silencing the TRAIL-R1 receptor and caspase-8 with siRNAs, rescued the apoptotic effect to 70% and 100% viability of untreated cells, respectively.
Cell viability was quantified by the measurement of ATP (CeIlTiterGlo® Luminescent Cell Viability Assay) or the quantification of mitochondrial activity (MTT assay). CellTiterGlo® Luminescent Cell Viability Assay was performed according to manufacturer's instructions. Briefly, 24 h after TRAIL treatment, CellTiterGlo® reagent was added to the medium. After mixing and shaking for 2 min, the luminescent signal was measured using Mithras LB 940 (Berthold Technologies, Bad Wildbad, Germany).
To determine the exact sensitivity to TRAIL-induced apoptosis, a dose-response curve ranging from 0.01 to 1000 ng/ml TRAIL was performed. Cell viability was quantified 24 h later by the CellTiterGlo® assay as this method is very sensitive, reproducible and applicable for high-throughput approaches. […] Maximum cell death is reached at TRAIL concentrations around 100 ng/ml (cf. FIG. 2).
The death-inducing ligand TRAIL triggers apoptosis in HeLa cells shortly after application (FIG. 5 A). During this process, the cytoplasm shrinks, the DNA condensates and the cell membrane starts blebbing, releasing fragments of the cell in a controlled manner (reviewed in Yasuhara 2007). […] This process was also monitored with a cell-based viability assay, quantifying cellular ATP-levels. TRAIL induced cell death in HeLa cells in a dose-dependant manner (FIG. 5 B).

rhApo2L/TRAIL: untagged version of recombinant soluble TRAIL, co-developed by Genentech and Amgen
Toxicity in patients receiving the single agent [1]: no dose-limiting toxicity (DLT) or severe adverse effects (SAEs) | Serious adverse events of the combination [2]: two SAEs possibly related to the combination | Tumor response assessment ([2]; eight patients with low-grade NHL): two showed complete response, one a partial response and five stable disease

HIS-TRAIL: soluble TRAIL with an N-terminal polyhistidine tag
Toxicity on freshly isolated human hepatocytes [3]: considerable toxicity

B1: TRAIL: death-inducing ligand, recombinant TRAIL used to trigger apoptosis in HeLa cells (protein, UniProt P50591 1-281, looked up)
Tumor necrosis factor ligand …: MAMMEVQGGPSLGQTCVLIVIFTVLLQSLCVAVTYVYFTNELKQMQDKYSKSGIACFLKEDDSYWDPNDEESMNSPCWQVKWQLRQLVRKMILRTSEETISTVQEKQQNISPLVRERGPQRVAAHITGTRGRSNTLSSPNSKNEKALGRKINSWESSRSGHSFLSNLHLRNGELVIHEKGFYYIYSQTYFRFQEEIKENTKNDKQMVQYIYKYTSYPDPILLMKSARNSCWSKDAEYGLYSIYQGGIFELKENDRIFVSVTNEHLIDMDHEASFFGAFLVG
Membrane blebbing observed after (HeLa cells; HeLa cells after addition of TRAIL): 1 to 2 h | Viable cells left after TRAIL treatment (HeLa cells; HeLa cells, 100 ng/ml recombinant TRAIL, 24 hours): no viable cells were left | TRAIL concentration at which maximum cell death is reached (HeLa cells; HeLa cells, dose-response 0.01 to 1000 ng/ml TRAIL, viability after 24 h, CellTiterGlo): around 100 ng/ml
